Laboratory results taken from patent US20220257766A1, “SSTR-TARGETED CONJUGATES AND FORMULATIONS THEREOF” (TVA (ABC), LLC, priority 2019, published 2022).

How the values were obtained:
[1] = Pharmacokinetics of Conjugate 57 in patients; assay type: in vivo, human
Experimental: (§1) In previous clincial studies, Conjugate 57 was administered via IV on an every 3 week cycle ([…]). The dose of Conjugate 57 may be 1.0 mg, 2.0 mg, 4.0 mg, 8 mg, 12 mg, 15 mg or MTD, which has been determined to be 18 mg. […] BSA (meters squared), as used herein, can be calculated as the following: the square root of patient height in centimeters times patient weight in kilograms divided by 3600. As shown in FIG. 1A and FIG. 1B, a trend was evident between dose normalized exposure (AUC0-8 and Cmax) vs BSA for Conjugate 57. […] The majority of toxicity observed was at dose levels greater than 8.8 mg/m^2. Based on these unexpected results, that starting dose of Conjuate 57 for patients was changed from 15 mg to 8.8 mg/m^2 or less than 8.8 mg/m^2. Patients received dose levels such as 8.8 mg/m^2, 8.75 mg/m^2, 8.6 mg/m^2, 8.4 mg/m^2, 8.3 mg/m^2, 7.9 mg/m^2, 7.5 mg/m^2, and 6.7 mg/m2.

[2] = Clinical studies of Conjugate 57 given IV: dose level, benefit and toxicity; assay type: in vivo, human
Experimental: as §1
The risk of over exposure of high Cmax levels in smaller pateints (<1.6 m^2) was reduced. The risk of early discontinuation due to intolerability was reduced and the duration of theray was increased.

[3] = Buffer screening for solution stability of Conjugate 57; assay type: physicochemical; details: acetate buffer at pH range of 4.0 to 4.8, compared with citrate and phosphate buffers
Text: Conjugate 57 is a free flowing powder. Previusly studies have found the stability of Conjugate 57 is dependent on the pH of the solution.

[4] = human, in vivo, intravenous, in a patient
[5] = patients, dose per body surface area

COc1cc2cc(c1Cl)N(C)C(=O)C[C@H](OC(=O)[C@H](C)N(C)C(=O)CCSSC[C@H](NC(=O)[C@@H]1CSSC[C@H](NC(=O)[C@H](N)Cc3ccccc3)C(=O)N[C@@H](Cc3ccc(O)cc3)C(=O)N[C@H](Cc3c[nH]c4ccccc34)C(=O)N[C@@H](CCCCN)C(=O)N[C@@H]([C@@H](C)O)C(=O)N1)C(N)=O)[C@]1(C)O[C@H]1[C@H](C)[C@@H]1C[C@@](O)(NC(=O)O1)[C@H](OC)/C=C/C=C(\C)C2 [Conjugate 57]
clearance [1, 4]: 318 mL/min
half-life [1, 4]: ~1.8 h
exposure (dose normalized AUC0-8 and Cmax) vs body surface area ([1]; patients, FIG. 1A and FIG. 1B): correlateds with body surface area (BSA)
MTD ([2]; IV, every 3 week cycle, flat dose, previous clinical studies): 18 mg
effect on efficacy of changing from flat doses to doses based on body surface area ([2]; patients): no negative effect on efficacy
dose levels at which maximum benefit was observed [2, 5]: ≤ 8.8 mg/m^2
dose levels at which the majority of toxicity was observed [2, 5]: greater than 8.8 mg/m^2
stability in buffered solution [3]: most stability
